Laboratory results from ChEMBL document CHEMBL3593243, “Discovery of novel, potent, selective and cellular active ADC type PTP1B inhibitors via fragment-docking-oriented de novel design” (Bioorg Med Chem, 2015).

How the values were obtained:
[1] = substrate: CCOc1cc(NS(C)(=O)=O)c(OCC)cc1CNC(=O)Nc1ccc(OC)cc1; conditions: Homo sapiens; 0.1 uM
Description: Inhibition of recombinant PTP1B (unknown origin) using pNPP as substrate assessed as enzyme Km at 0.1 uM after 30 mins by Michaelis-Menten plot analysis

[2] = substrate: CCOc1cc(NS(C)(=O)=O)c(OCC)cc1CNC(=O)Nc1ccc(OC)cc1; conditions: Homo sapiens; 0.2 uM
Description: Inhibition of recombinant PTP1B (unknown origin) using pNPP as substrate assessed as enzyme Km at 0.2 uM after 30 mins by Michaelis-Menten plot analysis

[3] = substrate: CCOc1cc(NS(C)(=O)=O)c(OCC)cc1CNC(=O)Nc1ccc(OC)cc1; conditions: Homo sapiens; 0.4 uM
Description: Inhibition of recombinant PTP1B (unknown origin) using pNPP as substrate assessed as enzyme Km at 0.4 uM after 30 mins by Michaelis-Menten plot analysis

[4] = substrate: CCOc1cc(NS(C)(=O)=O)c(OCC)cc1CNC(=O)Nc1ccc(OC)cc1; conditions: Homo sapiens; 0.8 uM
Description: Inhibition of recombinant PTP1B (unknown origin) using pNPP as substrate assessed as enzyme Km at 0.8 uM after 30 mins by Michaelis-Menten plot analysis

[5] = substrate: CCOc1cc(NS(C)(=O)=O)c(OCC)cc1CNC(=O)Nc1ccc(OC)cc1; conditions: Homo sapiens; 0.1 uM; remark: listed apart in the source
Description: Inhibition of recombinant PTP1B (unknown origin) using pNPP as substrate assessed as enzyme Vmax at 0.1 uM after 30 mins by Michaelis-Menten plot analysis

[6] = substrate: CCOc1cc(NS(C)(=O)=O)c(OCC)cc1CNC(=O)Nc1ccc(OC)cc1; conditions: Homo sapiens; 0.2 uM; remark: listed apart in the source
Description: Inhibition of recombinant PTP1B (unknown origin) using pNPP as substrate assessed as enzyme Vmax at 0.2 uM after 30 mins by Michaelis-Menten plot analysis

[7] = substrate: CCOc1cc(NS(C)(=O)=O)c(OCC)cc1CNC(=O)Nc1ccc(OC)cc1; conditions: Homo sapiens; 0.4 uM; remark: listed apart in the source
Description: Inhibition of recombinant PTP1B (unknown origin) using pNPP as substrate assessed as enzyme Vmax at 0.4 uM after 30 mins by Michaelis-Menten plot analysis

[8] = substrate: CCOc1cc(NS(C)(=O)=O)c(OCC)cc1CNC(=O)Nc1ccc(OC)cc1; conditions: Homo sapiens; 0.8 uM; remark: listed apart in the source
Description: Inhibition of recombinant PTP1B (unknown origin) using pNPP as substrate assessed as enzyme Vmax at 0.8 uM after 30 mins by Michaelis-Menten plot analysis

B1: Tyrosine-protein phosphatase non-receptor type 1 (Homo sapiens), P18031 (protein)
chain: MEMEKEFEQIDKSGSWAAIYQDIRHEASDFPCRVAKLPKNKNRNRYRDVSPFDHSRIKLHQEDNDYINASLIKMEEAQRSYILTQGPLPNTCGHFWEMVWEQKSRGVVMLNRVMEKGSLKCAQYWPQKEEKEMIFEDTNLKLTLISEDIKSYYTVRQLELENLTTQETREILHFHYTTWPDFGVPESPASFLNFLFKVRESGSLSPEHGPVVVHCSAGIGRSGTFCLADTCLLLMDKRKDPSSVDIKKVLLEMRKFRMGLIQTADQLRFSYLAVIEGAKFIMGDSSVQDQWKELSHEDLEPPPEHIPPPPRPPKRILEPHNGKCREFFPNHQWVKEETQEDKDCPIKEEKGSPLNAAPYGIESMSQDTEVRSRVVGGSLRGAQAASPAKGEPSLPEKDEDHALSYWKPFLVNMCVATVLTAGAYLCYRFLFNSNT
Km [1]: 2.96 mM
Km [2]: 3.89 mM
Km [3]: 4.52 mM
Km [4]: 7.32 mM
Vmax (milli optical density/minute) [5]: 58.3
Vmax (milli optical density/minute) [6]: 54.8
Vmax (milli optical density/minute) [7]: 48.9
Vmax (milli optical density/minute) [8]: 52.5
